Test [1] addresses Recombinant Human Desmoglein-2 Fc Chimera Protein (R&D Systems, 947-DM-100) (human) (UniProt Q14126). Description: SPR. In general terms: In SPR one partner is held on a chip, and binding of the other changes the refractive index at the surface.
Test [2] deals with Recombinant Human CXADR Fc Chimera Protein (CAR; R&D Systems, 3336-CX-050) (human) (UniProt P78310). Description: SPR (BIAcore 3000), receptor amine coupled to CM5 chip, knob as analyte.
In test [3] the target is CAR on CHO-CAR cells (human) (UniProt P78310).
CAR on CHO-CAR cells (human), sequence (P78310 20-365): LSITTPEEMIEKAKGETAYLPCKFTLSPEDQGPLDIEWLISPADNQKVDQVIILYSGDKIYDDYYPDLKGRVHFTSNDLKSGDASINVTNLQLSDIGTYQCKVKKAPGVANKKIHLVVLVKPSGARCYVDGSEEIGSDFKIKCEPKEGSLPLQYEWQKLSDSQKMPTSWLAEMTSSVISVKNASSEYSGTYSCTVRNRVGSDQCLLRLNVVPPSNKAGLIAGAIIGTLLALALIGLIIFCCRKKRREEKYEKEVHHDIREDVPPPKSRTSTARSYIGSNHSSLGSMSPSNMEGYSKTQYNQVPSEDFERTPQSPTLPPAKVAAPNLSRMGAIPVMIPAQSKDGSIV
Test [4] addresses Recombinant Human CD46 Protein (His Tag) (Sino biological, 12239-H08H) (human) (UniProt P15529). Description: SPR (BIAcore 3000), receptor amine coupled to CM5 chip, knob as analyte, equilibrium fit.
In test [5] the target is Recombinant Human Desmoglein-2 Fc Chimera Protein (R&D Systems, 947-DM-100) (human) (UniProt Q14126). The description is as above.
The target of test [6] is T1, Recombinant Human CD46 Protein (His Tag) (Sino biological, 12239-H08H) (human, UniProt P15529 35-328).
T1 chain: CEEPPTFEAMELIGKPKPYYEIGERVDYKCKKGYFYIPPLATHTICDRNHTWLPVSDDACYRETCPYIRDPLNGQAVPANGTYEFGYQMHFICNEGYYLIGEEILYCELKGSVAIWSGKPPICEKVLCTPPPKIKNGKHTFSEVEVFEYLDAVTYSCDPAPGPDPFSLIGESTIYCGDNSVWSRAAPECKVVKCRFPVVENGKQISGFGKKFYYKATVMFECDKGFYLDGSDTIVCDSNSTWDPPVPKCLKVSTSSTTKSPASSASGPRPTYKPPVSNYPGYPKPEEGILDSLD
Description: SPR.

Test [7] addresses T2, Recombinant Human Desmoglein-2 Fc Chimera Protein (R&D Systems, 947-DM-100) (human, UniProt Q14126 50-609).
T2 chain: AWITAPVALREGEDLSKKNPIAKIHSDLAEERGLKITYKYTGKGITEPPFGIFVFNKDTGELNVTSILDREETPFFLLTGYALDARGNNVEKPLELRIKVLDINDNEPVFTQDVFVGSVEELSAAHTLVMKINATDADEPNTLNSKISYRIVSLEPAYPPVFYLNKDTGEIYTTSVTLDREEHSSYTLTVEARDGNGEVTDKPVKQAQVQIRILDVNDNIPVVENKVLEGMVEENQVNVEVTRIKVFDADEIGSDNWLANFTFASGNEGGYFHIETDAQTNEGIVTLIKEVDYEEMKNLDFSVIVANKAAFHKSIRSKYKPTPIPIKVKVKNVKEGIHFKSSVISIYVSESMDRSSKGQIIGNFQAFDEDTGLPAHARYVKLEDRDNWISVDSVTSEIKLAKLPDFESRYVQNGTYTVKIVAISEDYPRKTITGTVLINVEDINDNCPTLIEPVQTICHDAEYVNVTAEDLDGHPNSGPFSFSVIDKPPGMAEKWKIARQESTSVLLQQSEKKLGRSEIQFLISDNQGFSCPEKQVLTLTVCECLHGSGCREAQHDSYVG
Description: SPR.

Recombinant Human CXADR Fc Chimera Protein (CAR; R&D Systems, 3336-CX-050) (human), sequence (P78310 20-237, change not shown): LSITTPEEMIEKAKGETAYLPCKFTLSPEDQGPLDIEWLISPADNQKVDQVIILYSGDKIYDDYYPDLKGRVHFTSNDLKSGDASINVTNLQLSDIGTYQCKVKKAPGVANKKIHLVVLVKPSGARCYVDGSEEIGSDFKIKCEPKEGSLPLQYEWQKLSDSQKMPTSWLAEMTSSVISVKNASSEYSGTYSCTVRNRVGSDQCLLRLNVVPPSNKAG

One may read the Kd as the free concentration of one partner at which half of the binding sites on the other are occupied at equilibrium, for simple one-to-one binding. As to “Recombinant HAdV-C5 fiber knob protein (from UniProt P11818 387-581)”, the values for the Kd in test [1] and in test [2] were 125 µM and 0.00076 µM, respectively.

Molecule Recombinant HAdV-D10 fiber knob protein yielded a fold lower affinity than HAdV-C5 (by IC50 values) in test [3] of 16.5 fold. Further, the results for the Kd in test [4], in test [5] and in test [2] were 20 µM, 125 µM and 0.44 µM, respectively.

B1: HAdV-B3k (other)
chain: TFDSSNSIALKNNTLWTGPKPEANCIIEYGKQNPDSKLTLILVKNGGIVNGYVTLMGASDYVNTLFKNKNVSINVELYFDATGHILPDSSSLKTDLELKYKQTADFSARGFMPSTTAYPFVLPNAGTHNENYIFGQCYYKASDGALFPLEVTVMLNKRLPDSRTSYVMTFLWSLNAGLAPETTQATLITSPFTFSYIREDD
B1: the Kd was 0.16 µM in test [6] and 66.9 µM in test [7].
